This note sets out measurements from the nanobody polyreactivity screen of Harvey et al. (2022).

The nature of the data set: yeast display, Sf9 membrane polyspecificity reagent, FACS + sequencing; frameworks hold sequencing errors. The method, boiled down: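 Nanobodies from a synthetic yeast display library (Saccharomyces cerevisiae BJ5465), induced 36–48 hours with galactose, were stained 1 hour at 4 °C with 10% biotinylated, detergent-solubilized Sf9 membrane reagent, enriched on streptavidin microbeads, then FACS-sorted. Anti-HA (expression) and streptavidin (reagent binding) fluorescence set low and high (top ~1%) gates. Polyreactivity labels come from the gate of origin. Genes were colony-PCR amplified, MiSeq 2 × 250 sequenced and filtered by CDR length.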
For the sequence “QVQLVESGGGLVQAGGSLRLSCAASGSILDPNAMGWYRQAPGKESELVANITNGGRTNFADSVKGRFTISRDNAKNTVYFQMNRLKPEDTAVYYCAKDSTFNSVTVLAPIIYDSWGQATQVTVSS”, the “polyreactivity (PSR sort gate)” value was “low polyreactivity”. With “QVQLVESGGGLVQAGGSLRLSCAASGSILESNVMGWYRQAPGKERELVASISSSGDSTYADSVKGRFTISRDNAKNTVYLQMNSLKPEDTAVYYCNADRTQDRNPYTYATFDYWGQGTQVTVSS” the entry was “low polyreactivity”; with “QVQLVESGGGLVQAGGSLRLSCAASGSILESNVMGWYRQAPGKERELVASISSSGDSTYADSVKGRFTISRDNAKNTVYLQMNSLKPEDTEVYYCAADRWYWTYALYYWGQGTQVTVSS”, “low polyreactivity”; with “QVQLVESGGGLVQAGGSLRLSCAASGSILFHYAMGWYRQAPGKERELVAAISRRGGSTYYADSVKGRFTISRDNAKNTVYFQMNSLKPEDNAVYYCAKYPSAYVDSDVTYDMDYWGQGTQVTVSS”, “low polyreactivity”. With “QVQLVESGGGLVQAGGSLRLSCAASGSILGSNAMGWYRQPPGKESEFVAAITTITGSTYYADSVKGRFTISRDNAKNTVYLEMNSLKPEDTAVYYCNADAHESTDYTLYFSGPYYYWGQGTQVTVSS” the entry was “low polyreactivity”. With “QVQLVESGGGLVQAGGSLRLSCAASGSILGTNAMGWYRQAPGKESELVAAINYSGGNTYYADSVKGRFTISRDNAKNTVYLQMNSLKPEDTAVYYCAAVNGWRRVKRFDYWGQGTQVTVSS”, the “polyreactivity (PSR sort gate)” value is reported as “high polyreactivity”. In the case of “QVQLVESGGGLVQAGGSLRLSCAASGSILGTYAMGWYRQAPGKVRELVAAISSSGRTSYADSVKGRFTISRDNAKNTGYLQMNSLKPEDTAVYYCNASNYIVLINDPYAAPWLYDYWGQGTQVTVSS”, the “polyreactivity (PSR sort gate)” value is given as “low polyreactivity”. “QVQLVESGGGLVQAGGSLRLSCAASGSILGVNVMGWYRQAPGKERELVAAISLSSSRTNYADSVKGRFTISRDNAKNTVYLQMNSLKPVDTAVYDCASAVRPGYARPYTSWGQGTQVTVSS”: the “polyreactivity (PSR sort gate)” value is on record as “high polyreactivity”. For “QVQLVESGGGLVQAGGSLRLSCAASGSILGVYTMGWYRQAPGKERELVAAITSSSSSTYADSVKGRFTISRDNAKNTVYLQMNSLKPEDTAVYYCATRGWSKQLYGGYTQYYYWGQGTQVTVSS”, the “polyreactivity (PSR sort gate)” value is reported as “high polyreactivity”.

Turning to “QVQLVESGGGLVQAGGSLRLSCAASGSILGYYAMGLYRQAPGKERELVAAISGRGGSTYYADSLKGRFTISRDNAKNTVYLQMNSLKPEDTAVYYCAKRSVWRGWGQGTQVTVSS”, the “polyreactivity (PSR sort gate)” value is “high polyreactivity”. On to “QVQLVESGGGLVQAGGSLRLSCAASGSILGYYAMGWYRQAPGKERELVAANTASGGSTYYADSVKGRFTISRDNAKNTVYLQMNSLKPEDTAVYYCAAQYYATYGYWGQGTQVTVSS”, for which the “polyreactivity (PSR sort gate)” value is given as “low polyreactivity”. On to “QVQLVESGGGLVQAGGSLRLSCAASGSILHLYAMGWYRQAPGKERELVARINSGGTTNYADSVKGRFTISRDNAKNTVYLQMNSLKPEDTAVYYCAARFTPYITSDDGHYDYWGQGTQVTVSS”, for which the “polyreactivity (PSR sort gate)” value is “low polyreactivity”.

For the sequence “QVQLVESGGGLVQAGGSLRLSCAASGSILHPNGMGWYRQAPGKERELVAAITINGDSTYYADSVKGRFTISRDNAKNTVYLQMNSLKPEDTAVYYCAVDGWPTGWYYYWGQGTQVTVSS”, the “polyreactivity (PSR sort gate)” value was “low polyreactivity”.

With “QVQLVESGGGLVQAGGSLRLSCAASGSILHPNGMGWYRQAPGKERELVAAITINGDSTYYADSVKGRFTISRDNAKNTVYLQMNSLKPEDTAVYYFAVDGWPTGWYYYWGQGTQVTVSS”, the “polyreactivity (PSR sort gate)” value is listed as “low polyreactivity”. Turning to “QVQLVESGGGLVQAGGSLRLSCAASGSILHPNGMGWYRQATGKERELVAAITINGDSTYYADSVKGRFTISRDNAKNTVYLQMNCLKPEDTAVYYCAVDGWPTGWYYYWGHGTQVTVSS”, the “polyreactivity (PSR sort gate)” value was “low polyreactivity”.

As for “QVQLVESGGGLVQAGGSLRLSCAASGSILKGYTMGWYRQAPGKERELVAAITQTDNSTNYADSVKGRFTISRDNAKNTVYLQMNSLKPEDTAVYYCAASQLEFRRAFYYWGQGTQVTVSS”, the “polyreactivity (PSR sort gate)” value is “low polyreactivity”. Then “QVQLVESGGGLVQAGGSLRLSCAASGSILKPYAMGWYRQAPGKERELVARISSSGGRTYYADSVKGRFTISRDNAKNTFYFKMNSLKPEDTAVYYFAAAIVSYGRNDYWGQGTQVTVSS”, with “high polyreactivity”.

Regarding “QVQLVESGGGLVQAGGSLRLSCAASGSILKSNAMGWYRQAPGKERELVAAITYRDGSTYYADSVKGRFTISRDNAKNTVYLQMNSLKAEDTAVYYCAAEPSWWNVFYPGYNYWGQGTQVTVSS”, the “polyreactivity (PSR sort gate)” value is recorded as “high polyreactivity”. In the case of “QVQLVESGGGLVQAGGSLRLSCAASGSILLINAMGWYRQAPGKERELVAAIRTGGSTYYADSVKGRFTISRDNAKNTVYLQMNSLKPEDTAVYYCAVRTGRRWWKFDYWGQGTQVTVSS”, the “polyreactivity (PSR sort gate)” value was “low polyreactivity”.

For the sequence “QVQLVESGGGLVQAGGSLRLSCAASGSILLIYAMGWYRQAPGKERELVAGITRGGSTNYADSVKGRFTISRDNAKNTVYLQMNSLKPEDTAVYYCASDGGPARYLVSDRDYWGQGTQVTVSS”, the “polyreactivity (PSR sort gate)” value is listed as “low polyreactivity”.

On to “QVQLVESGGGLVQAGGSLRLSCAASGSILLVYAMGWYRPAPGKERELVAAIRWSGGSTYYADSVKGRFTISRDNAKNTVYLQMNSLKPEDTAVYYCNAGESYSVKGGPYDSDYWGQGTQVTVSS”, for which the “polyreactivity (PSR sort gate)” value is “low polyreactivity”. Then “QVQLVESGGGLVQAGGSLRLSCAASGSILLYYAMGGSRPAPGKERQLVAAITCSGGSTYYADSVKGRFTISRDNAKNTDYLQMNSQKPEDTAVYYCNAVTDRAGSDYDSWGQGTQVTVSS”, with “low polyreactivity”; and “QVQLVESGGGLVQAGGSLRLSCAASGSILNNYAMGWYRQAPGKERELVAAISSSGGTNYADSVKGRFKISRDNAKNTVYLQMNSLKPEDTAVYYCAKESLYQYDYWGQGTQVTVSS”, with “low polyreactivity”. Turning to “QVQLVESGGGLVQAGGSLRLSCAASGSILPGNAMGWSRQAPGKERELVAAITYSGGSTYADSVKGRFTISRDNAKNTVYLQINSLKPEDTAVYYCNADFIDPSVYDYNYWGQGTQVTVSS”, the “polyreactivity (PSR sort gate)” value is “low polyreactivity”. “QVQLVESGGGLVQAGGSLRLSCAASGSILQRNAMGWYRQAPGKERELVAAISWSGDNTYYADSVKGRFTISRDNAKNTVYLQMNSLKPEDTAVYYCATDADIYFQEYDYWGQGTQVTVSS”: the “polyreactivity (PSR sort gate)” value was “low polyreactivity”. Consider “QVQLVESGGGLVQAGGSLRLSCAASGSILQSYAMGWSRQAPGKERELGAALSGSGGSTYYADSVKGRFTISRDNAKNTVYLQMNSLKPEDTAVYYCAKGPLYRTSRGEFGYWGQGTQVTVSS”, for which the “polyreactivity (PSR sort gate)” value is reported as “low polyreactivity”. Then “QVQLVESGGGLVQAGGSLRLSCAASGSILQSYAMGWYRQAPGKERELVAAITYRGGRTYYADSVKGRFTISRDNAKNTVYLQMNSLKPEDTAVYYCAADQQRSIDAPYGYWGQGTQVTVSS”, with “low polyreactivity”. For “QVQLVESGGGLVQAGGSLRLSCAASGSILRLYAMGWYRQAPGKERELVAAISSGGSTYYADSVKGRFPISRDNAKNTVYLQMNSLKPEDTAVYYCAAGVFWSWRYAYDYWGKGTQVTVSS”, the “polyreactivity (PSR sort gate)” value is “low polyreactivity”. With “QVQLVESGGGLVQAGGSLRLSCAASGSILRQYAMGWYRQAPGKERELVATISRSGGSKYYADSVKGRFTISRDNAKNTVYLQMNSLKPEDTAVYYCAASRYNKSYREWWVGSWGQGTQVTVSS” the entry was “high polyreactivity”; with “QVQLVESGGGLVQAGGSLRLSCAASGSILRSYAMGWYRQAPGKERELVAVINGSGGRTYYADSVKGRFTISRDNAKNTVYLQMNSLKPEDTAVYYCNKRYRFTGIRDPFDYWGQGTQVTVSS”, “low polyreactivity”; with “QVQLVESGGGLVQAGGSLRLSCAASGSILRSYAMGWYRQAPWKERELVAVINGSGGRTYYADSVKGRFTISRDIAKNTVYLQMNSLKPEDTAVYYCNADPGGRYPRRGYAHEGDYWGQGTQVTVSS”, “low polyreactivity”.

On to “QVQLVESGGGLVQAGGSLRLSCAASGSILRVNAMGWYRQAPGKEREVVAAISSGGITNYADSVKGALHNFTRQCEEYRLFTDEQPETGTYRGQFCARTYRNPASAGSLVVRYPYDYWGQGTQVTVTS”, for which the “polyreactivity (PSR sort gate)” value is “low polyreactivity”. As for “QVQLVESGGGLVQAGGSLRLSCAASGSILRYYAMGWYRQAPGKERELVADISTSGGSTYYADSVKGRFTISRDNAKNTFDLQMISLKPEDTAVYYCASAYYRYLIYIGKFDYWGQGTQVTVSS”, the “polyreactivity (PSR sort gate)” value is “high polyreactivity”.

Take “QVQLVESGGGLVQAGGSLRLSCAASGSILSGYAMGWYRQAPGTERELVAAINDGGGTNYADSVKGRFTISRDNAKNTVYLQMKSLKPEDTAVYYCAAEQSVSFLVFTGVKFDYWGQGTQVTVSS”: the “polyreactivity (PSR sort gate)” value is listed as “low polyreactivity”. With “QVQLVESGGGLVQAGGSLRLSCAASGSILSLNGMGWYRQAPGKERELVAVIRSGGSTYYADSVKGRFTISRDNAKNTVYLQMNSLKPEDTAVYYCNAQDYLTTVPDPEYDYWGQGTQVTVSS” the entry was “low polyreactivity”. With “QVQLVESGGGLVQAGGSLRLSCAASGSILSRYAMGWYRQAPGKERELVATITRRGGSTFYADSVKGRFTISRDNAKNTVYLQMNSLKPEDTAVYYCAVGRLFWGQGTQVTVSS” the entry was “low polyreactivity”; with “QVQLVESGGGLVQAGGSLRLSCAASGSILSTYSMGCYRQAPGKERELVASISSNAGSTYYADSVKGRFTISRDNAKNTVYLQMNSLKPEDTAVYYCNKVYGGGTYDYWGQGTQVTVSS”, “low polyreactivity”. For the sequence “QVQLVESGGGLVQAGGSLRLSCAASGSILTINAMGWYRQAPGKERELVARITISSGSTYYADSVKGRFTISRDNAKNTVYLQMNSLKPEDTAVYYCATDGRSNYYWGDYWGQGTQVTVSS”, the “polyreactivity (PSR sort gate)” value is on record as “low polyreactivity”.

In the case of “QVQLVESGGGLVQAGGSLRLSCAASGSILTRNAMGWYRQAPGKERELVAAISGGGGRTYYADSVKGRFTISRDNAKNTVYLQMNSLKPEDTAVYYCAADDGYSSNEYDYWGQGTQVTVSS”, the “polyreactivity (PSR sort gate)” value was “low polyreactivity”. Then “QVQLVESGGGLVQAGGSLRLSCAASGSILTRNAMGWYRQAPGKERELVAAISYSGVRTYYADSVKGRFTISRDNAKNTVYLQMNSLKPEDTAVYYCNAVISSRYDYWGQGTQVTVSS”, with “high polyreactivity”.
